Key:
cynomolgus CD38 [1] = target: T1, cynomolgus CD38 (cynomolgus monkey, UniProt Q5VAN0 1-301); experiment: binding to monkey lymphocytes; method not described; monkey lymphocytes, not CHO cells
T1 construct: In the assays: on CHO-K1 cells transfected with full-length cynomolgus CD38 cDNA, on monkey blood lymphocytes and tissue sections; also called cyno CD38; monkey CD38

cynomolgus CD38 [2] = target: T1, cynomolgus CD38; experiment: cell-based or functional assay
cynomolgus CD38 [3] = target: T1, cynomolgus CD38; experiment: flow cytometry on CHO cells expressing cynomolgus monkey CD38; CHO cells expressing monkey CD38
human CD38 = target: T2, human CD38 (human, UniProt P28907 1-300); experiment: binding to CHO cells expressing human CD38; CHO cells expressing human CD38
T2 construct: In the assays: on CHO-K1 cells transfected with full-length human CD38 cDNA, on human blood lymphocytes, RBCs, cell lines and tissue sections; also called human CD38 antigen

T1 sequence (Q5VAN0 whole entry): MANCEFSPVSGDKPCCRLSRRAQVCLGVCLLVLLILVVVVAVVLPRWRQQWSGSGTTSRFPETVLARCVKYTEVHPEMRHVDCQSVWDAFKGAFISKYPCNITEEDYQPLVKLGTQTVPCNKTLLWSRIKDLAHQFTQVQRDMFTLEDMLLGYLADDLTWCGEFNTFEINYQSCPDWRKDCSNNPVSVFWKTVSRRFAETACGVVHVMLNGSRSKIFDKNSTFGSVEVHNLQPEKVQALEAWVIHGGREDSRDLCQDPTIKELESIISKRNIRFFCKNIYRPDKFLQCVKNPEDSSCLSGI

Kd (cynomolgus CD38 [1]): 4 nM | cytolysis of NK cells in monkey whole blood in vitro, mean EC50 (cynomolgus CD38 [2]): 29.6 nM | EC50 (cynomolgus CD38 [3]): 4.5 nM | Kd (human CD38): 0.7 nM
B1: AB79 (antibody, human IgG1, lambda, V domains shown)
VH: EVQLLESGGGLVQPGGSLRLSCAASGFTFDDYGMSWVRQAPGKGLEWVSDISWNGGKTHYVDSVKGQFTISRDNSKNTLYLQMNSLRAEDTAVYYCARGSLFHDSSGFYFGHWGQGTLVTVSS
VL: QSVLTQPPSASGTPGQRVTISCSGSSSNIGDNYVSWYQQLPGTAPKLLIYRDSQRPSGVPDRFSGSKSGTSASLAISGLRSEDEADYYCQSYDSSLSGSVFGGGTKLTVLG
notes: Fully human IgG1 monoclonal antibody; Used unlabelled, Alexa Fluor conjugated or biotinylated, depending on the assay; also called TAK 079

— US20210388103A1 (Takeda / Millennium, published 2021)
